Target: biotinylated E2F-1 peptide symmetrically methylated at R111 and R113
Assay: BLI

A Kd of 12 µM was found for “p100-TSN Tudor domain (biolayer interferometry) (from UniProt Q7KZF4 729-787) (domain or fragment)” in this work.
